Data set [1] deals with CC(C)(O/N=C(\C(=O)N[C@@H]1C(=O)N2C(C(=O)[O-])=C(C[n+]3ccccc3)CS[C@H]12)c1csc(N)n1)C(=O)O. Description: initial hydrolysis rates, UV-VIS spectrophotometry, Michaelis-Menten fit. It is filed as biochemical, Aeromonas simiae. Particulars: 10 mM phosphate buffer pH 7.0, 30°C. An excerpt:
(§1) initial hydrolysis rates, UV-VIS spectrophotometry, Michaelis-Menten fit on OXA-830

Data set [2] deals with CC1(C)S[C@@H]2[C@H](NC(=O)Cc3ccccc3)C(=O)N2[C@H]1C(=O)O. Described as above. It is filed as biochemical, Aeromonas simiae. Particulars: 10 mM phosphate buffer pH 7.0, 30°C.
Source text: as §1

For data set [3], the system named is CC1(C)S[C@@H]2[C@H](NC(=O)[C@H](C(=O)O)c3ccsc3)C(=O)N2[C@H]1C(=O)O. Described as above. It is filed as biochemical, Aeromonas simiae. Particulars: 10 mM phosphate buffer pH 7.0, 30°C.
Source text: as §1

Data set [4] deals with CC1(C)S[C@@H]2[C@H](NC(=O)[C@H](N)c3ccccc3)C(=O)N2[C@H]1C(=O)O. The data set is described as above. Particulars: 10 mM phosphate buffer pH 7.0, 30°C. It is filed as biochemical, Aeromonas simiae.
Source text: as §1

Data set [5] has as its system CCN1CCN(C(=O)N[C@@H](C(=O)N[C@@H]2C(=O)N3[C@@H]2SC(C)(C)[C@@H]3C(=O)O)c2ccccc2)C(=O)C1=O. Described as above. Particulars: 10 mM phosphate buffer pH 7.0, 30°C. It is filed as biochemical, Aeromonas simiae.
Source text: as §1

Data set [6] concerns CO[C@@]1(NC(=O)Cc2cccs2)C(=O)N2C(C(=O)O)=C(COC(N)=O)CS[C@@H]21. The data set is described as above. It is filed as biochemical, Aeromonas simiae. Particulars: 10 mM phosphate buffer pH 7.0, 30°C.
Source text: as §1

Data set [7] relates to Cc1nnc(SCC2=C(C(=O)O)N3C(=O)[C@@H](NC(=O)Cn4cnnn4)[C@H]3SC2)s1. The data set is described as above. It counts as biochemical, Aeromonas simiae. The conditions noted are these: 10 mM phosphate buffer pH 7.0, 30°C.
Source text: as §1

The subject of data set [8] is Cc1onc(-c2ccccc2)c1C(=O)N[C@@H]1C(=O)N2[C@@H]1SC(C)(C)[C@@H]2C(=O)O. Described as above. It counts as biochemical, Aeromonas simiae. The conditions noted are these: 10 mM phosphate buffer pH 7.0, 30°C.
Source text: as §1

Data set [9] relates to Cc1onc(-c2ccccc2Cl)c1C(=O)N[C@@H]1C(=O)N2[C@@H]1SC(C)(C)[C@@H]2C(=O)O. The description is as above. It is filed as biochemical, Aeromonas simiae. Particulars: 10 mM phosphate buffer pH 7.0, 30°C.
Source text: as §1

The target in another data set is T1, OXA-830 (Aeromonas simiae, UniProt A0A5K1KBV9).
T1 construct: gene blaOXA; predicted signal peptide cleavage 22/23
T1 sequence (A0A5K1KBV9 entry or part of it): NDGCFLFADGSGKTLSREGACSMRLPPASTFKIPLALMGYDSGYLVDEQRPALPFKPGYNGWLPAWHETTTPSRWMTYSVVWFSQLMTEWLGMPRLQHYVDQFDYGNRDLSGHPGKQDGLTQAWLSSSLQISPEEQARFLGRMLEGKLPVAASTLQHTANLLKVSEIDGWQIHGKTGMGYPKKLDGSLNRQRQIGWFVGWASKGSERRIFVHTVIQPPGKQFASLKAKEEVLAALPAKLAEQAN
The data set can be described thus: inhibition of benzylpenicillin hydrolysis, UV-VIS spectrophotometry. It is filed as biochemical.

In the case of OXA-830 (Aeromonas simiae), the Km (as a rule, the substrate concentration at which the rate is half of its maximum) in data set [1] was found to be 61 µM; in data set [2] it was 540 µM; in [3] it was 208 µM; in data set [4], 188 µM; in data set [5], 233 µM; in data set [6] it was 76 µM. The Km in data set [7] stood at 975 µM; in data set [8], 722 µM; in data set [9], 737 µM. Further, the kcat – broadly, the number of substrate molecules converted per active site and unit of time at saturation – in [1] was determined as 2.04 s⁻¹; in data set [2] it was 527 s⁻¹; in data set [3], 227 s⁻¹; in [4], 444 s⁻¹; in [5], 413 s⁻¹; in data set [6] it was 2.79 s⁻¹. Moreover, the kcat came to 715 s⁻¹ in [7], 1240 s⁻¹ in [8] and 1030 s⁻¹ in data set [9]. Moreover, the kcat/Km (in general, the turnover number divided by the Michaelis constant) stood at 33000 M⁻¹ s⁻¹ in [1]; 980000 M⁻¹ s⁻¹ in [2]; 1.09e+06 M⁻¹ s⁻¹ in [3]; 2.36e+06 M⁻¹ s⁻¹ in data set [4]; 1.77e+06 M⁻¹ s⁻¹ in data set [5]; 37000 M⁻¹ s⁻¹ in data set [6]. Further, the kcat/Km in data set [7] was found to be 730000 M⁻¹ s⁻¹; in [8] it was 1.72e+06 M⁻¹ s⁻¹; in data set [9], 1.4e+06 M⁻¹ s⁻¹.

Turning to `CC1(C)[C@H](C(=O)O)N2C(=O)C[C@H]2S1(=O)=O` [sulbactam], the midpoint of inhibition on OXA-830, the IC50, lay at 50 ± 10 nM.

Regarding `C[C@]1(Cn2ccnn2)[C@H](C(=O)O)N2C(=O)C[C@H]2S1(=O)=O` [tazobactam], on OXA-830, half-maximal inhibition (IC50) required 70 ± 20 nM.

For `O=C(O)[C@H]1/C(=C/CO)O[C@@H]2CC(=O)N21` [clavulanic acid], the midpoint of inhibition on OXA-830, the IC50, lay at 260 ± 20 nM.

Values taken from paper PMC6902050, “OXA-830, a Novel Chromosomally Encoded Extended-Spectrum Class D β-Lactamase in Aeromonas simiae” (Frontiers in Microbiology, 2019).
